Test [1] deals with human cardiac troponin-I-T-C complex (human) (UniProt P63316). Nature of the test: sandwich chemiluminescent immunoassay (…); detection 7G7 conjugate 30 ng/mL, capture M8020207 microparticles; cTnITC standard, 0 pM cTnT (blank).
Test [2] deals with Cardiac troponin-T (human) (UniProt P45379). The test is described as follows: sandwich chemiluminescent immunoassay (…); detection 7G7 conjugate, capture 7F4 microparticles; cTnT 0 ug/mL (blank).
Test [3] has as its target human cardiac troponin-I-T-C complex (human) (UniProt P63316). Nature of the test: sandwich chemiluminescent immunoassay (…); detection 7G7 conjugate 30 ng/mL, capture M8020207 microparticles; cTnITC standard, 42 pM cTnT.
For test [4] the target is unchanged. The test is described as follows: sandwich chemiluminescent immunoassay (…); detection 7G7 conjugate, capture M8020207 microparticles; human plasma spiked with cTnITC, nominal 7 pM cTnT.
Test [5] has as its target Cardiac troponin-T (human) (UniProt P45379). Nature of the test: sandwich chemiluminescent immunoassay (…); detection 7G7 conjugate, capture 7F4 microparticles; cTnT 2 ug/mL.
The target is the same in test [6]. The test is described as follows: sandwich chemiluminescent immunoassay (…); detection 7G7 conjugate, capture 1C11 microparticles; cTnT 2 ug/mL.
In test [7] the target is human cardiac troponin-I-T-C complex (human) (UniProt P63316). The test is described as follows: sandwich chemiluminescent immunoassay (…); detection 7G7 conjugate 30 ng/mL, capture M8020207 microparticles; cTnITC standard, 7 pM cTnT.
Test [8] concerns the target Cardiac troponin-T (human) (UniProt P45379). Nature of the test: sandwich chemiluminescent immunoassay (…); detection 7G7 conjugate, capture 7F4 microparticles; cTnT 0.5 ug/mL.
Test [9] has the same target. Nature of the test: sandwich chemiluminescent immunoassay (…); detection 7G7 conjugate, capture M8020207 microparticles; cTnT 1 ug/mL.
The target in test [10] is human cardiac troponin-I-T-C complex (human) (UniProt P63316). Nature of the test: sandwich chemiluminescent immunoassay (…); detection 7G7 conjugate, capture M8020207 microparticles; human plasma spiked with cTnITC, nominal 42 pM cTnT as labelled in the table.
Test [11] addresses Cardiac troponin-T (human) (UniProt P45379). The test is described as follows: sandwich chemiluminescent immunoassay (…); detection 7G7 conjugate, capture M8020207 microparticles; cTnT 2 ug/mL.
Test [12] has the same target. The test is described as follows: sandwich chemiluminescent immunoassay (…); detection 7G7 conjugate, capture 1C11 microparticles; cTnT 0.5 ug/mL.
The target is the same in test [13]. The test is described as follows: sandwich chemiluminescent immunoassay (…); detection 7G7 conjugate, capture 1C11 microparticles; cTnT 0.25 ug/mL.
For test [14] the target is unchanged. The test is described as follows: sandwich chemiluminescent immunoassay (…); detection 7G7 conjugate, capture 7F4 microparticles; cTnT 0.25 ug/mL.
For test [15] the target is unchanged. The test is described as follows: sandwich chemiluminescent immunoassay (…); detection 7G7 conjugate, capture M8020207 microparticles; cTnT 0 ug/mL (blank).
For test [16] the target is unchanged. Nature of the test: sandwich chemiluminescent immunoassay (…); detection 7G7 conjugate, capture M8020207 microparticles; cTnT 0.25 ug/mL.
The target of test [17] is human cardiac troponin-I-T-C complex (human) (UniProt P63316). The test is described as follows: sandwich chemiluminescent immunoassay (…); detection 7G7 conjugate 30 ng/mL, capture M8020207 microparticles; cTnITC standard, 279 pM cTnT.
In test [18] the target is Cardiac troponin-T (human) (UniProt P45379). Nature of the test: sandwich chemiluminescent immunoassay (…); detection 7G7 conjugate, capture M8020207 microparticles; cTnT 0.5 ug/mL.
The target of test [19] is human cardiac troponin-I-T-C complex (human) (UniProt P63316). Nature of the test: sandwich chemiluminescent immunoassay (…); detection 7G7 conjugate, capture M8020207 microparticles; negative human plasma without spiked cTnITC (blank).
Test [20] has the same target. The test is described as follows: sandwich chemiluminescent immunoassay (…); detection 7G7 conjugate 30 ng/mL, capture M8020207 microparticles; cTnITC standard, 14 pM cTnT.
The target of test [21] is Cardiac troponin-T (human) (UniProt P45379). Nature of the test: sandwich chemiluminescent immunoassay (…); detection 7G7 conjugate, capture 7F4 microparticles; cTnT 1 ug/mL.
The target is the same in test [22]. The test is described as follows: sandwich chemiluminescent immunoassay (…); detection 7G7 conjugate, capture 1C11 microparticles; cTnT 1 ug/mL.
Test [23] shares this target. Nature of the test: sandwich chemiluminescent immunoassay (…); detection 7G7 conjugate, capture 1C11 microparticles; cTnT 0 ug/mL (blank).

Regarding “Murine anti-cardiac troponin-T 7G7 acridinium-9-carboxamide conjugate (antibody)”, the RLU in test [1] was 2370 RLU; in test [2], 333 RLU; in test [3] it was 81500 RLU; in [4], 13800 RLU; in test [5], 46800 RLU; in test [6] it was 311000 RLU. The RLU in [7] is 15300 RLU; in [8], 17200 RLU; in test [9] it was 251000 RLU; in test [10] it was 74100 RLU; in test [11] it was 305000 RLU; in [12], 149000 RLU. Also, the RLU in test [13] is 79400 RLU; in [14], 9080 RLU; in [15], 338 RLU; in test [16] it was 96200 RLU; in test [17] it was 423000 RLU; in test [18], 164000 RLU. The RLU in test [19] was found to be 2070 RLU; in [20], 28100 RLU; in [21], 29900 RLU; in test [22], 238000 RLU; in [23], 317 RLU.

For the origin of these results see US20110129854A1.
